# Legend:
# [1] = target: recombinant human FGF-8b (human) (UniProt P55075); test: cell-based or functional assay
# human VEGF-A (human) = human VEGF-A (human) (UniProt P15692); test: SPR (Biacore T100), VEGF-A immobilized, 100 nM VEGFR-2-Fc5 injected, 1:1 dissociation fit
# human FGF-9 (human) = human FGF-9 (human) (UniProt P31371); test: cell-based or functional assay
# [2] = target: recombinant human FGF6 (human) (UniProt P10767); test: cell-based or functional assay
# [3] = target: recombinant human FGF1 (human) (UniProt P05230); test: cell-based or functional assay
# [4] = target: recombinant human FGF2 (human) (UniProt P09038); test: cell-based or functional assay
# [5] = target: recombinant human FGF4 (human) (UniProt P08620); test: cell-based or functional assay
# [6] = target: recombinant human FGF-17 (human) (UniProt O60258); test: direct binding ELISA, FGF-17 coated, FGFR-Fc titrated with heparin, anti-human Fc-HRP
# [7] = target: recombinant human FGF-8b (human) (UniProt P55075); test: direct binding ELISA, FGF-8b coated, FGFR-Fc titrated with heparin, anti-human Fc-HRP
# Sequence of recombinant human FGF-8b (human) (P55075 other isoform, or with tags, fused parts or gaps limits assumed): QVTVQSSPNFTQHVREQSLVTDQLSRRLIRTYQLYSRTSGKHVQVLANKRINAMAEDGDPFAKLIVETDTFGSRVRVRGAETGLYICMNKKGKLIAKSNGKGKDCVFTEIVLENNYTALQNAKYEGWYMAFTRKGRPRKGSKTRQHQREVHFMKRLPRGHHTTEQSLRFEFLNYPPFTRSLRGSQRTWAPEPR
# Sequence of recombinant human FGF1 (human) (P05230 16-155 limits assumed): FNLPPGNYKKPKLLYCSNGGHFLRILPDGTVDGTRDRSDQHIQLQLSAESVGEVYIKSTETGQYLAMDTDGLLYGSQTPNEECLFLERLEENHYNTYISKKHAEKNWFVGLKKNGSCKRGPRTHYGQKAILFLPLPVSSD
# Sequence of recombinant human FGF6 (human) (P10767 83-208 limits assumed): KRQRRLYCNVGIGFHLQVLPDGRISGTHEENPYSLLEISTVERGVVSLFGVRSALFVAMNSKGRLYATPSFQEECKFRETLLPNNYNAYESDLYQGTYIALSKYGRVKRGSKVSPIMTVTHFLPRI
# Sequence of recombinant human FGF2 (human) (P09038 143-288 limits assumed): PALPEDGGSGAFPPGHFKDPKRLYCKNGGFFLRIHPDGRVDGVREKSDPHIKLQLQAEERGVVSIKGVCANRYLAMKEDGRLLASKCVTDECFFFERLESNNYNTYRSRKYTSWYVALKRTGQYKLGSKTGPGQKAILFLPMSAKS
# Sequence of recombinant human FGF4 (human) (P08620 31-206 limits assumed): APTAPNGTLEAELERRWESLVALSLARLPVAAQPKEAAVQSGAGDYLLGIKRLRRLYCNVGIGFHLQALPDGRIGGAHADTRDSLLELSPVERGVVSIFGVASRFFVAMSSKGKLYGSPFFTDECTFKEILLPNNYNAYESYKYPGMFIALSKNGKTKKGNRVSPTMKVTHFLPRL
# Sequence of recombinant human FGF-17 (human) (O60258 23-216 limits assumed): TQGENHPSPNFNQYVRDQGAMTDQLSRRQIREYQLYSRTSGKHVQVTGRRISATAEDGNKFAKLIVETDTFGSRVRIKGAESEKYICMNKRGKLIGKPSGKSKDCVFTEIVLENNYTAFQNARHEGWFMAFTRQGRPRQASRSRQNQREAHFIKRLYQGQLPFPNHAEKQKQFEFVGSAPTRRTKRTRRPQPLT
# Sequence of human VEGF-A (human) (P15692 other isoform, or with tags, fused parts or gaps limits assumed): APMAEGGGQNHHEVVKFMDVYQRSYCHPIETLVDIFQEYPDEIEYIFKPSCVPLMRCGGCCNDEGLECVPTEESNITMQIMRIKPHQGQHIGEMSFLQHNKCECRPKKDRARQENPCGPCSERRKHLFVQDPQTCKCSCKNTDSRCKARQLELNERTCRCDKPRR
# Sequence of human FGFR1-Fc (R&D Systems) (P11362 22-376): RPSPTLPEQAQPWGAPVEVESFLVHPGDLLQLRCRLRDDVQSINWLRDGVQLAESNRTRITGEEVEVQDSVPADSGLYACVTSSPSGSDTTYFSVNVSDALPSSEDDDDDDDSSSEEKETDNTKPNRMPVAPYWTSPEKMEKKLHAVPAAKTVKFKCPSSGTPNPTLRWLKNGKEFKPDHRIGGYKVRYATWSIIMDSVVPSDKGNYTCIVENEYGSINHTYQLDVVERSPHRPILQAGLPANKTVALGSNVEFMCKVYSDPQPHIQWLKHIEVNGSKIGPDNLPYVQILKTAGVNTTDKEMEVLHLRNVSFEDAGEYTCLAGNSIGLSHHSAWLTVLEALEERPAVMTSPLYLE
"Proliferation IC50, FGF8b-stimulated LNCap cells (3H-thymidine) [1] [pM]",koff (human VEGF-A (human)) [s⁻¹],"Proliferation IC50, FGF-9-stimulated HCO osteoblasts (3H-thymidine) (human FGF-9 (human)) [pM]","IC50, FGF-stimulated HUVEC proliferation (3H-thymidine) [2] [pM]","IC50, FGF-stimulated HUVEC proliferation (3H-thymidine) [3] [pM]","IC50, FGF-stimulated HUVEC proliferation (3H-thymidine) [4] [pM]","IC50, FGF-stimulated HUVEC proliferation (3H-thymidine) [5] [pM]",IC50 [6] [pM],IC50 [7] [pM],Substance
300,,,,,,,,,"FGFR2alphaIIIc(145-377) Fc5, truncated FGFR2-Fc (A2559F) (Fc fusion)"
10,,,,,,,,,"FGFR2alphaIIIc(145-377)(S252W) Fc5, truncated FGFR2-Fc S252W (A2560F) (Fc fusion)"
,,1100,420,630,920,530,,,human FGFR1-Fc (R&D Systems) (from UniProt P11362 22-376) (Fc fusion)
290,,490,300,420,850,480,,,human FGFR2-Fc (R&D Systems) (from UniProt P21802 22-377) (Fc fusion)

# The next lines start with the substance.
Substance,"Proliferation IC50, FGF8b-stimulated LNCap cells (3H-thymidine) [1] [pM]",koff (human VEGF-A (human)) [s⁻¹],"Proliferation IC50, FGF-9-stimulated HCO osteoblasts (3H-thymidine) (human FGF-9 (human)) [pM]","IC50, FGF-stimulated HUVEC proliferation (3H-thymidine) [2] [pM]","IC50, FGF-stimulated HUVEC proliferation (3H-thymidine) [3] [pM]","IC50, FGF-stimulated HUVEC proliferation (3H-thymidine) [4] [pM]","IC50, FGF-stimulated HUVEC proliferation (3H-thymidine) [5] [pM]",IC50 [6] [pM],IC50 [7] [pM]
"FGFR2alphaIIIc(145-377)(P253R) Fc5, truncated FGFR2-Fc P253R (A2561F) (Fc fusion)",10,,,,,,,,
VEGFR-2-Fc5 (from UniProt P0DOX5 218-449) (Fc fusion),,0.0002,,,,,,,
human FGFR3-Fc (R&D Systems) (from UniProt P22607 23-375) (Fc fusion),790,,440,9960,530,5500,1060,30100,23400
